Measured values published in article PMC11481384.

Target: Keap1 Kelch domain (amino acid residues 309 to 624) (human) (UniProt Q14145)
Assay: ITC; MicroCal ITC200, 25 °C, 20 mM Tris‐HCl and 150 mM NaCl; Kelch and synthetic PGAM5 peptides; 19 injections at 2‐min intervals

Keap1 Kelch domain (amino acid residues 309 to 624) (human), sequence (Q14145 309-624): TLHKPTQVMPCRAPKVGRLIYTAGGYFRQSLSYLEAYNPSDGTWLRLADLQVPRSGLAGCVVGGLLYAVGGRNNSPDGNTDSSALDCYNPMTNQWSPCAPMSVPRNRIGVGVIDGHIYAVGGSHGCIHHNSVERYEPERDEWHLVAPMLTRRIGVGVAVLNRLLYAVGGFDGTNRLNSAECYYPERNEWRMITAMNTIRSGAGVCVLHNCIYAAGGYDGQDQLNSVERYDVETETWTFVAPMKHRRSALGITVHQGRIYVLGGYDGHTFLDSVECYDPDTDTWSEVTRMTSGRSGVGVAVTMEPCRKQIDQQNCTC

Kd	Substance
37.7 µM	E79A mutant based on the PGAM5 20‐mer peptide
0.107 µM	PGAM5 20‐mer peptide (based on the ESGE motif)
